Measurements reported in article PMC5717070.

Biological target: Solanum tuberosum aspartic protease plant-specific insert (saposin-like domain), recombinant (Solanum tuberosum)
Assay: AUC; sedimentation equilibrium, 26-28 uM PSI, 27 mM sodium phosphate pH 3.0, 140 mM NaCl, 20 °C, single ideal species model; monomer to dimer

stoichiometry N: 2
Substance: Solanum tuberosum aspartic protease plant-specific insert (saposin-like domain), recombinant (domain or fragment)
